Patent US20120213774A1 (Hoffmann-La Roche, published 2012)
Substitutions are numbered along the chain they refer to.

B1: humanized ra170 10.12 (antibody, V domains shown)
VH: VQLVQSGAEVKKPGASVKVSCKASGFSLSSHDISWVRQAPGQGLEWMGYIWSDENTYYASWAQGRVTMTTDTSTSTAYMELRSLRSDDTAVYYCARDQYRSSGVSDYDIWGPGTLVTVSS
VL: AAVMTQSPATLSVSPGERATLSCRSSQSVGNNNDLAWYQQKPGQAPRLLIYKASTRATGIPARFSGSGSGTEFTLTISSLQSEDFAVYYCLGGYDDDADNTFGGGTKVEIK
B2: humanized ra170 11.12 (antibody, V domains shown)
VH: B1 VH with N55S
VL: B1 VL
B3: Antibody ra170 (rabbit IgG1) (antibody, V domains shown)
VH: QSVEESGGRLVTPGTPLTLTCTVSGFSLSSHDMSWVRQAPGKGLEWIGYIWSDDNTYYASWAKGRFTISKTSTTVDLKITSPTTEDTATYFCARDQYRSSGVSDYDIWGPGTLVTVSS
VL: AAVLTQTPSPVSAAVGGTVTISCQSSQSVGNNNDLAWYQQKPGQPPKILIYKASTLASGVPSRFEGSGSGTQFTLTISDVQCDDAATYYCLGGYDDDADNTFGGGTEVVVK
notes: Rabbit monoclonal from B cell cloning; they are assigned to this molecule; also called Mab ra170; clone Ra170
B4: ra170 IgG4 SPLE (antibody, V domains shown)
VH: B3 VH
VL: AAVLTQTPSPVSAAVGGTVTISCQSSQSVGNNNDLAWYQQKPGQPPKILIYKASTLASGVPSRFEGSGSGTQFTLTISDVQCDDAATYYCLGGYDDDADNTFGGGTEVVVKR

Tests used:
[1] = biological target: T1, human IL33R (ST2) on human cells (human, UniProt Q01638 19-556); assay: cell-based or functional assay
T1 sequence (looked up): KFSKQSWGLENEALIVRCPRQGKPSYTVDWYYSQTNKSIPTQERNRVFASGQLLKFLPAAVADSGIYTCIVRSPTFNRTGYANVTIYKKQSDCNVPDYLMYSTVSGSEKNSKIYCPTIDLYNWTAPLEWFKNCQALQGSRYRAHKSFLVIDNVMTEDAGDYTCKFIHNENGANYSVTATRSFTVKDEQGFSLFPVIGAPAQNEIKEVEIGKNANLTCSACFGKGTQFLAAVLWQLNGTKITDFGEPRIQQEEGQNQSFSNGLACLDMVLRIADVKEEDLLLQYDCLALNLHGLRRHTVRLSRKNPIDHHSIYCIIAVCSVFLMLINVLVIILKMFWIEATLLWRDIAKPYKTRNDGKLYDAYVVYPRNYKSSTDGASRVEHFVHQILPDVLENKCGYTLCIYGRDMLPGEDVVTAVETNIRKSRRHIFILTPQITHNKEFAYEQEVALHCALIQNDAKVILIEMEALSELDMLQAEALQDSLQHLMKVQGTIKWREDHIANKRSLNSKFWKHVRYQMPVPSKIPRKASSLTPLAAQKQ

[2] = biological target: T2, Monomeric human ST2 ECD with 6His Avitag (human, UniProt Q01638 19-328); assay: SPR (BIACORE T100, 37 C, pH 7.4), antibody captured by anti-human Fc, monomeric ST2 ECD in solution
T2 construct: extracellular domain; also called human ST2 ECD (His-Avitag monomer); not shown: 6His Avitag
T2 sequence (looked up): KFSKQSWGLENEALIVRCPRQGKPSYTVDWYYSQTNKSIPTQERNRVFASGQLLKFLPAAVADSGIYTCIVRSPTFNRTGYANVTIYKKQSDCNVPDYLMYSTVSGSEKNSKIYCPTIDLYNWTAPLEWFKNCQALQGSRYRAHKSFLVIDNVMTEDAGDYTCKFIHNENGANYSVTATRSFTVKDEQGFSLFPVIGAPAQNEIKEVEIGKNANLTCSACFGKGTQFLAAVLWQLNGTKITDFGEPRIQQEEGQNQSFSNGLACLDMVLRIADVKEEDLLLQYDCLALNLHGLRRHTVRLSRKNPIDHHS
Protocol: (§1) Monomeric human ST2 ECD with 6His Avitag™ (Avidity, LLC, US) was added in various concentrations in solution. Association was measured by injection of ST2 ECD for a contact time of 120 sec. (single cycle-kinetic) at 37° C.; dissociation was measured by washing the chip surface with buffer for 1800 sec. at 37° C. For calculation of apparent KD and other kinetic parameters the Langmuir 1:1 model was used.

[3] = biological target: T1, human IL33R (ST2) on human cells; assay: cell-based or functional assay; remark: listed apart in the source
[4] = biological target: T2, Monomeric human ST2 ECD with 6His Avitag; assay: SPR (BIACORE T100, 37 C, pH 7.4), antibody captured by anti-human Fc, monomeric ST2 ECD in solution, apparent KD, 1:1 model
Protocol: as §1

[5] = biological target: cynomolgus IL33R (ST2) on cynomolgus NK cells (cynomolgus); assay: cell-based or functional assay
[6] = biological target: T3, recombinant human ST2/IL-1R4 Fc chimera (R&D Systems, Cat. No. 523-ST) (human, UniProt Q01638 19-328); assay: competition ELISA: antibody against biotinylated human IL33 on captured human ST2/IL-1R4 Fc chimera
T3 construct: Bought product; also called ST2/IL-1R4 protein; not shown: Fc part of the bought chimera (captured by anti-human IgG Fc)
T3 sequence (looked up): T2 sequence (looked up)
Protocol: (§2) The test was performed on 384 well MaxiSorp™ microtiter plates (Sigma-Aldrich, Nunc. DE, Cat. No. 464718) at RT. After each incubation step plates were washed 3 times with PBST (Phosphate Buffered Saline Tween®-20). […] Thereafter the wells were blocked with PBS supplemented with 0.1% Tween®-20 and 2% BSA (Roche Diagnostics GmbH, DE) for 1 h. […] Dilutions of purified antibodies or supernatants from hybridoma/B-cells in PBS with 0.5% BSA and 0.05% Tween®-20 were incubated with the receptor protein for 1 h. Biotinylated human IL33 (PeproTech, US, Cat No. 500-P261) was added for an additional hour to build up the complex. IL33 was biotinylated with Sulfo-NHS-LC-Biotin (Thermo Scientific Pierce, US, Cat. No. 21327) according to the manufacturer's protocol and purified using Zeba™ Desalt Spin Column (Thermo Scientific Pierce, US, Cat. No. 89889). Binding of the biotinylated IL33 to the complex was detected with 1:4000 diluted streptavidin HRP (Roche Diagnostics GmbH, DE, Cat. No. 11089153001). After 1 h the plates were washed 6 times with PBST and developed with freshly prepared BM blue POD substrate solution (BM blue: 3,3′-5,5′-Tetramethylbenzidine, Roche Diagnostics GmbH, DE, Cat. No. 11484281001) for 12 minutes at RT. Absorbance was measured at 370 nm. […]

[7] = biological target: T4, recombinant cyno ST2 Fc chimera (cynomolgus); assay: competition ELISA: antibody against biotinylated human IL33 on captured cyno ST2 Fc chimera
T4 construct: also called cynomolgus ST2
Protocol: as §2

Binder | IC50, IFN-γ secretion by human NK cells stimulated with IL33 and IL-12 [1] [nM] | koff [2] [s⁻¹] | kon [2] [M⁻¹ s⁻¹] | t1/2 [2] [min] | NFkB IC50 [3] [nM] | Kd [4] [nM] | IC50, IFNγ release of cynomolgus NK cells stimulated with human IL33 and cynomolgus IL-12 [5] [nM] | IC50, GM-CSF release of KU812 basophil cells stimulated with IL33 [1] [nM] | IC50, IL-5 release of KU812 basophil cells stimulated with IL33 [1] [nM] | IC50, IL-5 release of human Th2 cells restimulated with IL33 [1] [nM] | IC50, IL-5 release of primary mast cells stimulated with IL33 [1] [nM] | IC50, IL-13 release of KU812 basophil cells stimulated with IL33 [1] [nM] | IC50, IL-13 release of human Th2 cells restimulated with IL33 [1] [nM] | IC50, IL-13 release of primary mast cells stimulated with IL33 [1] [nM] | IC50, eosinophil viability (IL33 dependent survival) [1] [nM] | IC50 [6] [nM] | IC50 [7] [nM]
B1 | 1.3 | 0.0051 | 4.9e+06 | 2 | 0.28 | 1.1 | – | – | – | – | – | – | – | – | – | – | –
B2 | 1.8 | 0.00043 | 3.1e+06 | 27 | 0.04 | 0.14 | – | – | – | – | – | – | – | – | – | – | –
B3 | 0.27 | – | – | – | 0.025 | – | 0.109 | 1.31 | 1.48 | 2.77 | ≤ 0.2 | 3.49 | 1.1 | ≤ 0.4 | 1.3 | 0.32 | 0.13
B4 | – | 1.3e-05 | 4.6e+06 | 881 | – | 0.0027 | – | – | – | – | – | – | – | – | – | – | –
